Tests used:
[1] = biological target: T1, IL-23 (human, p19/p40 heterodimer) (Homo sapiens, UniProt Q9NPF7;P29460 SEQ:20-189,SEQ:23-328); test: filter; no binding detectable; settings: tags: R&D Systems, carrier free; label: 5'-32P
Description: (§1) Following the dRmY selection process for aptamers binding to IL-23 (described in Example 1C above) and determination of the oligonucleotide sequences, the sequences were systematically minimized to obtain shorter oligonucleotide sequences that retain the binding characteristics. On the basis of the IL-23 binding analysis described in Example 1A above and the cell based assay data described in Example 3 below, ARC489 (SEQ ID NO 91) (74mer) was chosen for further characterization. 3 minimized constructs based on clone ARC489 (SEQ ID NO 91) were designed and generated. […] Table 23 includes the binding data for the dRmY minimized aptamers.

[2] = biological target: T1, IL-23 (human, p19/p40 heterodimer); test: cell_activity; TransAM STAT3; settings: tags: R&D Systems, carrier free
[3] = biological target: T1, IL-23 (human, p19/p40 heterodimer); test: filter; 0.1 mg/mL tRNA; settings: tags: R&D Systems, carrier free
Protocol: Monitoring Progress of rRfY Selection. Dot blot binding assays were performed throughout the selections to monitor the protein binding affinity of the pools. Trace ³²P-labeled RNA was combined with a dilution series of h-IL-23 and incubated at room temperature for 30 minutes in 1×SHMCK (20 mM Hepes, 120 mM NaCl, 5 mM KCl, 1 mM MgCl₂, 1 mM CaCl₂, pH 7.4) plus 0.1 mg/mL tRNA for a final volume of 20 μL. The binding reactions were analyzed by nitrocellulose filtration using a Minifold I dot-blot, 96-well vacuum filtration manifold (Schleicher & Schuell, Keene, N.H.). A three-layer filtration medium was used, consisting (from top to bottom) of Protran nitrocellulose (Schleicher & Schuell), Hybond-P nylon (Amersham Biosciences) and GB002 gel blot paper (Schleicher & Schuell). RNA that is bound to protein is captured on the nitrocellulose filter, whereas the non-protein bound RNA is captured on the nylon filter. The gel blot paper was included simply as a supporting medium for the other filters. Following filtration, the filter layers were separated, dried and exposed on a phosphor screen (Amersham Biosciences, Piscataway, N.J.) and quantified using a Storm 860 Phosphorimager® blot imaging system (Amersham Biosciences).

[4] = biological target: T1, IL-23 (human, p19/p40 heterodimer); test: filter; direct binding without tRNA; settings: tags: R&D Systems, carrier free; label: 5'-32P
Protocol: (§2) These molecules were gel purified and assayed for IL-23 binding using the dot blot assay as described above and compared to each other and to the parent molecule, ARC979. An 8 point IL-23 titration (0 nM to 300 nM, 3 fold serial dilutions) was used in the binding assay.

[5] = biological target: T1, IL-23 (human, p19/p40 heterodimer); test: filter; -tRNA; competition 6 nM; settings: tags: R&D Systems, carrier free
Protocol: as §2

[6] = biological target: T1, IL-23 (human, p19/p40 heterodimer); test: filter; direct binding without tRNA; competition Kd 5 nM; settings: tags: R&D Systems, carrier free; label: 5'-32P
Protocol: as §2

[7] = biological target: T1, IL-23 (human, p19/p40 heterodimer); test: competition; 1X PBS, 0.1 mg/mL BSA; direct Kd 93 nM with tRNA, 90 nM without; settings: tags: R&D Systems, carrier free; label: 5'-32P; G4
Protocol: (§3) The fraction aptamer bound vs. [IL-23] was used to calculate the KD by fitting the following equation to the data: Fraction aptamer bound=amplitude*([IL-23]/(KD+[IL-23]))+background binding.
(§4) Several of the minimized constructs from the dRmY Selection 2 were also assayed in a competition format in which cold aptamer was titrated and competed away trace ³²P ATP labeled aptamer In the competition assay, the [IL-23] was held constant, the [trace labeled aptamer] was held constant, and the [unlabeled aptamer] was varied. The KD was calculated by fitting the following equation to the data: Fraction aptamer bound=amplitude*([aptamer]/(KD+[aptamer]))+background binding.

[8] = biological target: T1, IL-23 (human, p19/p40 heterodimer); test: filter; no binding detectable; settings: tags: R&D Systems, carrier free; label: 32P
[9] = biological target: T2, IL-12 (human, p35/p40 heterodimer) (Homo sapiens, UniProt P29459;P29460 SEQ:57-253,SEQ:23-328); test: filter; no binding detectable; settings: label: 32P
[10] = biological target: T3, IL-23 (mouse, p19/p40 heterodimer) (Mus musculus, UniProt Q9EQ14;P43432 SEQ:22-196,SEQ:23-335); test: filter; 1X PBS, 0.1 mg/mL BSA, 30 min RT; inactive in TransAM cell assay; settings: tags: isolated in-house; label: 32P
T3 sequence 1: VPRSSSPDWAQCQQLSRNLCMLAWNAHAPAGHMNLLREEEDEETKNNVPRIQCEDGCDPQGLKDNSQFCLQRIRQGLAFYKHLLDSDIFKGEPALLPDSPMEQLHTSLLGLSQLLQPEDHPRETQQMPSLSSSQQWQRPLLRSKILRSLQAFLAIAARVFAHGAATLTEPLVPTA
T3 sequence 2: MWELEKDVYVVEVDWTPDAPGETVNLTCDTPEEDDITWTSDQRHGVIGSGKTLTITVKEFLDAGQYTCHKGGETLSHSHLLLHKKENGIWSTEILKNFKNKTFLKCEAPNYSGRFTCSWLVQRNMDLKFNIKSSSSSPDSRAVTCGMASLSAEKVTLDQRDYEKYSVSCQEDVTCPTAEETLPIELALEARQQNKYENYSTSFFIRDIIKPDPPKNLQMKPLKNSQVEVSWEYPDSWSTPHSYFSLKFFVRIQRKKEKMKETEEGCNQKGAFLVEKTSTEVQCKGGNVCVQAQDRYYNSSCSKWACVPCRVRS
Description: (§5) Based on visual inspection of the parent clone sequences of the mouse IL-23 rRfY aptamers described in Example 1E, and predicted RNA structures using an RNA folding program (RNAstructure), minimized constructs were designed for each of the seven binding mIL-23 clones. PCR templates for the minimized construct oligos were ordered from Integrated DNA Technologies (Coraville, Iowa). Constructs were PCR amplified, transcribed, gel purified, and tested for binding to mIL-23 using the dot blot binding assay previously described. Trace ³²P-labeled RNA was combined with mIL-23 and incubated at room temperature for 30 min in 1×PBS plus 0.1 mg/mL BSA for a final volume of 30 μL. The reaction was added to a dot blot apparatus (Schleicher and Schuell Minifold-1 Dot Blot, Acrylic). Binding curves were generated as described in previous sections. Table 33 summarizes the protein binding characterization for each rRfY minimized construct that had significant binding to mIL-23.

[11] = biological target: T1, IL-23 (human, p19/p40 heterodimer); test: filter; no binding; used as negative control; settings: tags: R&D Systems, carrier free; label: 5'-32P
Description: as §3
Table 25 below summarizes the minimized sequences and the parent clone from which they were derived, and Table 26 summarizes the binding characterization from direct binding assays (+/−tRNA) and competition binding assays for the minimized constructs tested.

[12] = biological target: T3, IL-23 (mouse, p19/p40 heterodimer); test: filter; 1X PBS, 0.1 mg/mL BSA, 30 min RT; settings: tags: isolated in-house; label: 32P
Description: as §5

[13] = biological target: T1, IL-23 (human, p19/p40 heterodimer); test: competition; 1X PBS, 0.1 mg/mL BSA; direct binding Kd 40 nM with tRNA; settings: tags: R&D Systems, carrier free; label: 5'-32P; G4 (predicted)
Protocol: as §3, §4

[14] = biological target: T1, IL-23 (human, p19/p40 heterodimer); test: filter; 1X PBS, tRNA, ssDNA, BSA, 30 min RT; settings: tags: R&D Systems, carrier free; label: 32P
[15] = biological target: T2, IL-12 (human, p35/p40 heterodimer); test: filter; 1X PBS, tRNA, ssDNA, BSA, 30 min RT; settings: label: 32P
[16] = biological target: T1, IL-23 (human, p19/p40 heterodimer); test: filter; 1X PBS, tRNA, ssDNA, BSA, 30 min RT; settings: tags: R&D Systems, carrier free; label: 5'-32P
Description: as §1

[17] = biological target: T1, IL-23 (human, p19/p40 heterodimer); test: filter; no binding in dot blot, but active in TransAM cell assay (p381); settings: tags: R&D Systems, carrier free; label: 5'-32P

T1 sequence (Q9NPF7 20-189, chain 1 of 2): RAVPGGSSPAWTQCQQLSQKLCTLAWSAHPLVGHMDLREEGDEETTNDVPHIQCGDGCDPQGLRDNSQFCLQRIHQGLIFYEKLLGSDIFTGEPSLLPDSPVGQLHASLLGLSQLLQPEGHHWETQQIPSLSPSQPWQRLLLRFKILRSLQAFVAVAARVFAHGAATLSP
T1 sequence (P29460 23-328, chain 2 of 2): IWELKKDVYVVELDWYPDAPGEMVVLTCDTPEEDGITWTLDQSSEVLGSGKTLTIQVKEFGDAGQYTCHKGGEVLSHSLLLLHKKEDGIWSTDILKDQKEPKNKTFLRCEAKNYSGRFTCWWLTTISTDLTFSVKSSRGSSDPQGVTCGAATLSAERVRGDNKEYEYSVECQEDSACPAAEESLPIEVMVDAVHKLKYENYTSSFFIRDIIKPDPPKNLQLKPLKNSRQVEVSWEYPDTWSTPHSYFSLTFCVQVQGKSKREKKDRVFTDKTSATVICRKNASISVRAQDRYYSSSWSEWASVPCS
T2 sequence (P29459 23-219, chain 1 of 2): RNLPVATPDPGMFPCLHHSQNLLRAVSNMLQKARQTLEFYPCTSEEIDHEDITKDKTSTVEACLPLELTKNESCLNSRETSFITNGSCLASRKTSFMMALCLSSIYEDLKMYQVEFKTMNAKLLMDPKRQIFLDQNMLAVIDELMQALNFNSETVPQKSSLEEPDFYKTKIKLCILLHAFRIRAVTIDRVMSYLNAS
T2 sequence (P29460 23-328, chain 2 of 2): as the sequence (P29460 23-328, chain 2 of 2) above

Q: Does GCGCCGGUGGGCGGGCACCGGGUGGAUGCGCC (mixed, 2'-deoxy A and G, 2'-OMe C and U (dRmY)) [ARC528] bind [1]?
A: no binding

B1: A10.min6 (ssRNA)
RNA: GGAGUACGCCGAAAGGCGCUCUGAGUACUCAGCGUCCGUAAGGGAUACUCC
modifications: 2'-F C,U
Q: What does the source list for B1?
A: IC50 [2]: 250 nM; Kd [3]: 48.3 nM

Q: How did the Kd [4] turn out when ACAGGCAAGUAAUUGGGGAGUGCGGGCGGGGUGU (mixed, dRmY; PS between nt 9 and 10) [ARC1154] was run?
A: 412 nM

B2: ARC1162 (mixed)
RNA: ACAGGCAAGUAAUUGGGGAGUGCGGGCGGGGUGU
modifications: deoxy A,G; 2'-OMe C,U; PS 20-21 [PS between 20-21; 2'-OMe C,U at 2,6,10,13,14,21,23,27,32,34; deoxy A,G at all other positions]
Q: With B2 as the binder, how does the Kd [5] read?
A: 47 nM

B3: ARC1161 (mixed)
RNA: ACAGGCAAGUAAUUGGGGAGUGCGGGCGGGGUGU
modifications: deoxy A,G; 2'-OMe C,U; PS 19-20 [PS between 19-20; 2'-OMe C,U at 2,6,10,13,14,21,23,27,32,34; deoxy A,G at all other positions]
Q: How did the Kd [5] turn out when B3 was run?
A: 55 nM

B4: ARC1160 (mixed)
RNA: ACAGGCAAGUAAUUGGGGAGUGCGGGCGGGGUGU
modifications: dRmY; PS between nt 18 and 19 [N = PS linkage, not a base; PS between nt 18 and 19; 2'-deoxy all A/G; 2'-OMe all C/U (2,6,10,13,14,21,23,27,32,34)]
Q: With B4 as the binder, how does the Kd [6] read?
A: 38 nM

Q: ACAGGCAAGUAAUUGGGGAGUGCGGGCGGGGUGU (mixed, 2'-deoxy A and G, 2'-OMe C and U (dRmY)) [ARC979] was tested. Which Kd [7] did it give?
A: 9 nM

B5: ARC492 (mixed)
RNA: GGGAGAGGAGAGAACGUUCUACUCAAUGACCGCGCGAGGCUCUGGGAGAGGGCGCUGUCGAUCGAUCGAUCGAUG
modifications: 2'-deoxy A and G, 2'-OMe C and U (dRmY)
Q: Does B5 bind [8]?
A: no binding

Q: Does B5 bind [9]?
A: no binding

Q: GGAGCGCACUCAGCCACCGGCUUAAUAUCCAAUAGGAACGUUCGCUCU (ssRNA, 2'-F all C and U (rRfY)) [ARC1918 (ARC1632 minimer)] was tested. Which Kd [10] did it give?
A: 1 nM

Q: Does GGCAAGGUAAUUGGGUAGUGAGGGCUGGG (mixed, 2'-deoxy A and G, 2'-OMe C and U (dRmY)) [ARC895] bind [11]?
A: no binding

Q: For GGGCACUCAGCCACAGCUCGGUGGCUUAAUAUCUAUGUGAACGUGCCC (ssRNA, 2'-F all C and U (rRfY)) [ARC1633 minimer], which Kd [12] is on record?
A: 25 nM

Q: For CGAUAUAGGCGGUACGGGGGGAGUGGGCUGGGGUCG (mixed, 2'-deoxy A and G, 2'-OMe C and U (dRmY)) [ARC795], which Kd [13] is on record?
A: 4 nM

Q: Which Kd [12] does the source give for GGGCACUCAGCCACAGGUGGCUUAAUACUGUAAAGACGUGCCC (ssRNA, 2'-F all C and U (rRfY)) [ARC1739 (ARC1628 minimer)] here?
A: 1 nM

B6: ARC490 (mixed)
RNA: GGGAGAGGAGAGAACGUUCUACAGCCUUUUGGGUAAGGGGAGGGGUGCCGGUCGCUGUCGAUCGAUCGAUCGAUG
modifications: 2'-deoxy A and G, 2'-OMe C and U (dRmY)
Q: Which Kd [14] does the source give for B6 here?
A: 26 nM

Q: What about the Kd [15] of the same binder?
A: 37.1 nM

Q: For GGAGUACACAAGAAGUGCUUCCGAAAGGACGUCGAAUAGAUACUCC (ssRNA, 2'-F C,U) [B10.min5], which IC50 [2] is on record?
A: 80 nM

Q: And the Kd [3]?
A: 277 nM

Q: ACAGCGCCGGUGGGCGGGCAUUGGGUGGAUGCGCUGU (mixed, 2'-deoxy A and G, 2'-OMe C and U (dRmY)) [ARC527] was tested. Which Kd [16] did it give?
A: 12.6 nM

Q: Which results are given for GGGUACGCCGAAAGGCGCUUCCGAAAGGACGUCCGUAAGGGAUACCC (ssRNA, 2'-F C,U) [Type 1.4]?
A: IC50 [2]: 80 nM; Kd [3]: 185 nM

Q: Does GGCGGUUACGGGGGAUGCGGGUGGGACAGG (mixed, 2'-deoxy A and G, 2'-OMe C and U (dRmY)) [ARC982] bind [17]?
A: no binding

Q: Does ACAGCGCCGGUGUUUUCAUUGGGUGGAUGCGCUGU (mixed, 2'-deoxy A and G, 2'-OMe C and U (dRmY)) [ARC529] bind [1]?
A: no binding

Q: Which Kd [12] does the source give for GGGCACUCAGCCACCUUGGGCUUAAUACCUAUCGGAUGUGCCC (ssRNA, 2'-F all C and U (rRfY)) [ARC1634 minimer] here?
A: 19 nM

Reference: US20060193821, “Aptamers to the human IL-12 cytokine family and their use as autoimmune disease therapeutics” (published 2006)
